± gives the uncertainty stated by the source.
Test: self-splicing fitness, log relative to wild type (ln ratio); higher = more splicing; Tetrahymena group I intron in knt gene, E. coli kanamycin selection, DiMSum; sequences stand for … in CUCUCU…GGAGGGAAAAGUUAUCAGGCAUGCACCUGGUAGCUAGUCUUUAAACCAAUAGAUUGCAUCGGUUUAAAAGGCAAGACCGUCAAAUUGCGGGAAAGGGGUCAACAGCCGUUCAGUACCAAGUCUCAGGGGAAACUUUGAGAUGGCCUUGCAAAGGGUAUGGUAAUAAGCUGACGGACAUGGUCCUAACCACGCAGCCAAGUCCUAAGUCAACAGAUCUUCUGUUGAUAUGGAUGCAGUUCACAGACUAAAUGUCGGUCGGGGAAGAUGUAUUCUUCUCAUAAGAUAUAGUCGGACCUCUCCUUAAUGGGAGCUAGCGGAUGAAGUGAUGCAACACUGGAGCCGCUGGGAACUAAUUUGUAUGCGAAAGUAUAUUGAUUAGUUUUGGAGUACUCGUGGUCG
Outline: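 DiMSum derived fitness as the error-weighted combination of fold changes across replicates, kanamycin versus no kanamycin, normalised to wild type. E. coli BL21(DE3) held the library, which randomised all eight P1ex-region intron nucleotides within the knt kanamycin-resistance gene on pET-22b(+). Six replicate transformations grew overnight at 37°C or 30°C on LB agar with or without 25 μg/mL kanamycin, also containing 100 μg/mL carbenicillin, 50 μM IPTG and 0.2% rhamnose, and pooled colonies were amplicon-sequenced on an Illumina HiSeq 2500.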

Sequence | self-splicing fitness (ln) (30 °C) | self-splicing fitness (ln) (37 °C)
UUGAAGCAAUAUUACGUUCG | -0.397 ± 0.065 | 0.0406 ± 0.088
UUGAAGCAAUAUUACGUUUG | -1.6 ± 0.12 | -0.811 ± 0.19
UUGCAGCAAUAUUACGAACC | -1.76 ± 0.45 | 
UUGCAGCAAUAUUACGACCC |  | -0.535 ± 0.4
UUGCAGCAAUAUUACGACUC | -1.2 ± 0.11 | -0.0756 ± 0.12
UUGCAGCAAUAUUACGAGCU | -2.6 ± 0.1 | -1.37 ± 0.11
UUGCAGCAAUAUUACGAGGC | -3.55 ± 0.23 | -2.07 ± 0.22
UUGCAGCAAUAUUACGAUAG | -0.692 ± 0.079 | 0.225 ± 0.11
UUGCAGCAAUAUUACGAUCA | -1.37 ± 0.12 | -0.0311 ± 0.11
UUGCAGCAAUAUUACGAUGC | -3.16 ± 0.46 | -1.54 ± 0.45
UUGCAGCAAUAUUACGCAAG | -1.92 ± 0.16 | -2.89 ± 0.36
UUGCAGCAAUAUUACGCAUC | -3.11 ± 0.22 | -3.18 ± 0.33
UUGCAGCAAUAUUACGCCCA | -1.28 ± 0.21 | -0.155 ± 0.25
UUGCAGCAAUAUUACGCCUU | -0.0132 ± 0.081 | 0.15 ± 0.11
UUGCAGCAAUAUUACGCGAU | -2.02 ± 0.29 | -2.6 ± 0.36
UUGCAGCAAUAUUACGCGUA | -0.889 ± 0.13 | -0.457 ± 0.11
UUGCAGCAAUAUUACGCUAU | -2.99 ± 0.25 | -1.16 ± 0.17
UUGCAGCAAUAUUACGCUCU | -1.01 ± 0.12 | -0.306 ± 0.13
UUGCAGCAAUAUUACGCUUA | -0.263 ± 0.12 | -0.0443 ± 0.13
UUGCAGCAAUAUUACGGCGU | -0.34 ± 0.051 | 0.352 ± 0.065
UUGCAGCAAUAUUACGGGGA | -1.37 ± 0.13 | -0.636 ± 0.12
UUGCAGCAAUAUUACGGGGC | -3.99 ± 0.2 | -2.35 ± 0.2
UUGCAGCAAUAUUACGGUAG | -0.823 ± 0.057 | -0.064 ± 0.07
UUGCAGCAAUAUUACGUAAA | -1.25 ± 0.095 | -0.427 ± 0.12
UUGCAGCAAUAUUACGUACA | 0.118 ± 0.11 | -0.0402 ± 0.13

Sequence | self-splicing fitness (ln) (30 °C) | self-splicing fitness (ln) (37 °C)
UUGCAGCAAUAUUACGUACU | -1.36 ± 0.12 | -0.848 ± 0.12
UUGCAGCAAUAUUACGUAGC | -2.96 ± 0.3 | 
UUGCAGCAAUAUUACGUCUC | -1.21 ± 0.12 | -0.311 ± 0.16
UUGCAGCAAUAUUACGUGAU | -3.85 ± 0.2 | -2.06 ± 0.17
UUGCAGCAAUAUUACGUGGA | -2.52 ± 0.18 | -1.27 ± 0.13
UUGCAGCAAUAUUACGUUCC |  | -2.16 ± 0.27
UUGCAGCAAUAUUACGUUUU | -3.97 ± 0.22 | -1.85 ± 0.13
UUGGAGCAAUAUUACGAACG |  | -0.295 ± 0.28
UUGGAGCAAUAUUACGACAU | -1.81 ± 0.02 | -1.04 ± 0.036
UUGGAGCAAUAUUACGAUGG | -1.53 ± 0.21 | -1.54 ± 0.21
UUGGAGCAAUAUUACGCAGG | -2.96 ± 0.28 | -1.99 ± 0.33
UUGGAGCAAUAUUACGCGUG | -3.03 ± 0.18 | -0.323 ± 0.087
UUGGAGCAAUAUUACGGAUG | -3.54 ± 0.34 | -2.12 ± 0.4
UUGGAGCAAUAUUACGGCGA | -1.32 ± 0.48 | 
UUGGAGCAAUAUUACGGUAG | -3.58 ± 0.2 | -1.99 ± 0.18
UUGGAGCAAUAUUACGUCGA | -2.6 ± 0.3 | 0.049 ± 0.27
UUGGAGCAAUAUUACGUGGU | -2.84 ± 0.36 | -2.56 ± 0.32
UUGGAGCAAUAUUACGUGUA | -3.69 ± 0.29 | 
UUGGAGCAAUAUUACGUUAU | -2.79 ± 0.28 | -0.885 ± 0.26
UUGUAGCAAUAUUACGACAG | -0.234 ± 0.21 | -0.137 ± 0.25
UUGUAGCAAUAUUACGAUAA | -1.44 ± 0.11 | -0.33 ± 0.17
UUGUAGCAAUAUUACGAUGA | -0.47 ± 0.13 | 0.0216 ± 0.12
UUGUAGCAAUAUUACGAUGU | -3.86 ± 0.29 | -0.334 ± 0.12
UUGUAGCAAUAUUACGAUUC | -3.76 ± 0.34 | -3.2 ± 0.3
UUGUAGCAAUAUUACGCGUC | -3.51 ± 0.42 | -0.917 ± 0.26
